Reference: article PMC6826516

B1: LgBiT-TEAD1-Myc (TEAD1 aa 194-411), wild type [not stated] / SmBiT-TAZ-Flag (TAZ aa 13-119), wild type [not stated] (parent)
chain 1: PGQQVIHVTQDLDTDLEALFNSVMNPKPSSWRKKILPESFFKEPDSGSHSRQSSTDSSGGHPGPRLAGGAQHVRSHSSPASLQLGTGAGAAGSPAQQHAHLRQQSYD
chain 2: RSIGTTKLRLVEFSAFLEQQRDPDSYNKHLFVHIGHANHSYSDPLLESVDIRQIYDKFPEKKGGLKELFGKGPQNAFFLVKFWADLNCNIQDDAGAFYGVTSQYESSENMTVTCSTKVCSFGKQVVEKVETEYARFENGRFVYRINRSPMCEYMINFIHKLKHLPEKYMMNSVLENFTILLVVTNRDTQETLLCMACVFEVSNSEHGAQHHIYRLVKD

Variants of: B1
Assay: NanoBiT assay (split-luciferase biosensor) in lysates of transfected HEK293T cells
Conditions: with SmBiT-TAZ-Flag (TAZ aa 13-119), 48 h after transfection, equal amounts of each biosensor plasmid, read off a plot

Variant | response (fold over LgBiT-TEAD1 alone)
chain 2 E47A V49A I54A | 37
